Reference: PMC2217671

Substrate: NCCC[C@H](N)C(=O)O
Test: purified protein
Conditions: 200 uM PLP, 12.5 mM DTT, 250 mM Tris pH 7.5, 37 °C, 0.002% BRIJ-35 added, enzyme unstable, low activity

B1: recombinant E. histolytica putative ornithine decarboxylase (ODC)-like protein (Entamoeba histolytica) (protein)
chain: MKQTSLEVKEFALNLISQFEPENQPLGFWIFDTEGVEKAVERWKKNMPTVRPCFAVKCNPEPHLVKLLGELGCGFDCASLNEIKEVLDLGFNPEDITYSQTFKPYNQLIEASHLGINHTIVDSIDEVQKIAKYAPKMGIMIRIMENDTSAGHVFGEKFGLHDDEVEIVLKEIKDKGLNLDGVHFHVGSDSHNSEVFTKALTKARNTVTLAEQFGMKPYLIDIGGGFSQVAPFEEFAATIEKTIKELEFPERTRFIAEPGRYMASNAFHLVSSLHGKRVRIQNGKKQIEYTSGDGLHGSFGCCIWFEKQKSCECITQKVNENTKMYESIIYGPSCNGSDKVATQELPEMEPGKDWLLFPNMGAYTISMATNFNGFEERNHVIYTLPLKSTKIIQIPKSIECNSVPSLNGIPHYA
Work on B1 yielded a Km of 1500 µM.
